Results reported in patent US11896642.
No end group written: not given here.

Legend:
[1] = biological target: biotin labeled PDGF-BB (R&D Systems) (UniProt P01127); assay: competitive ELISA: biotin PDGF-BB pre-incubated with conjugate at 1 mg/mL, added to plate-coated PDGF-Rβ Fc; A450 against reference Compound 1 (higher = less inhibition)
[2] = biological target: Rat tail monomeric collagen I (Corning) (rat) (UniProt P02454); assay: competitive ELISA on plate-coated rat tail collagen I, competitor biotin Compound 1B; IC50 against that of Compound 1

Sequence of UniProt P01127 (P01127 82-190): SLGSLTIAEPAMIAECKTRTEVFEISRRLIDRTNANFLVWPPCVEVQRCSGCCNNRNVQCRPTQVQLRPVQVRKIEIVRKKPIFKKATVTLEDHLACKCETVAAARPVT

| ratio Absorbance 450 conjugate/Absorbance 450 reference [1] | ratio IC50sample/IC50 Compound 1 [2] | Binder |
| --- | --- | --- |
| 17 | 14.8 | GQLYKSILYGSGSGSRR (not fully specified (C-terminus); also: several peptides per HA backbone, peptide load 10) [HA108 backbone HA, 10PM] |
| 9.31 | 7.49 | GQLYKSILYGSGSGSRR (not fully specified (C-terminus); also: several peptides per HA backbone, peptide load 50) [HA108 backbone HA, 50PM] |
| 14.2 | 13.4 | GQLYKSILYGSGSGSRR (not fully specified (C-terminus); also: several peptides per HA backbone, peptide load 30) [HA108 backbone HA, 30PM] |
| 16.3 | 2.82 | GQLYKSILYGSGSGSRR (not fully specified (C-terminus); also: several peptides per HA backbone, peptide load 20) [HA108 backbone HA, 20PM] |
